Where a chain is given by its changes, count along the chain named. Names and notes keep the numbering of the source. Each block holds one binder with its values, some of them ahead of it.
Target: recombinant human IL-18 (human) (UniProt Q14116)
Experiment: cell-based or functional assay

Chain of recombinant human IL-18 (human) (Q14116 37-193 limits assumed): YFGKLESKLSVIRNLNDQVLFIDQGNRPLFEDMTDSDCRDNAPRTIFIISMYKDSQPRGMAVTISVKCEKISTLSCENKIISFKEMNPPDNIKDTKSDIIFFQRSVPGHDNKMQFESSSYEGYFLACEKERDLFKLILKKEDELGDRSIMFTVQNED

IC50 (M), HEK293/NFkB-luciferase bioassay: 1.67e-10 M
B1: mIL18BPd (C45S).mFc (Fc fusion, not shown: a dimerising Fc or GST)
chain: TSAPQTTATVLTGSSKDPSSSWSPAVPTKQYPALDVIWPEKEVPLNGTLTLSCTACSRFPYFSILYWLGNGSFIEHLPGRLKEGHTSREHRNTSTWLHRALVLEELSPTLRSTNFSCLFVDPGQVAQYHIILAQLWDGLKTAPPPSQETLSSHSPVSRSAGPGVA

IC50 (M), HEK293/NFkB-luciferase bioassay: 9.6e-11 M
B2: mIL18BPd.mFc (Fc fusion, not shown: a dimerising Fc or GST)
chain: B1 chain with S19C
